Measured values as given in article PMC2686265, “ATP and MO25α Regulate the Conformational State of the STRADα Pseudokinase and Activation of the LKB1 Tumour Suppressor” (PLoS Biology, 2009).
Like-named read-outs stand apart in the source and are kept apart here.

Legend:
Assay in all cases: SPR BIAcore binding of STRADα to immobilised MO25α
[1] = target: T1, MO25α (M260A) (Homo sapiens, UniProt Q7RTN6+Q9Y376, M260A)
T1 construct: wild-type and mutant forms of STRADα (residues 54–431) and MO25α (residues 1–341) were expressed individually as GST fusion proteins in E. coli; GST (cleaved yes); made in house; host or cells: E. coli
T1 sequence (Q9Y376 1-341 M260A): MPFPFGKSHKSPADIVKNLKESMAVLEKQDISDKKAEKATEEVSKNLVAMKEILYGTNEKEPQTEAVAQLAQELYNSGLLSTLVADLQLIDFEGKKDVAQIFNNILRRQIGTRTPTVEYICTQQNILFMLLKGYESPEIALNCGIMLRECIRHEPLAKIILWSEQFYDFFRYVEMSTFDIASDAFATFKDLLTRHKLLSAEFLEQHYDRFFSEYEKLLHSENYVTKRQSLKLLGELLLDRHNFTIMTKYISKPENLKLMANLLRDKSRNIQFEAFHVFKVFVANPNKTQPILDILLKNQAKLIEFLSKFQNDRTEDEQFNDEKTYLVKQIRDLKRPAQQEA
T1 sequence (Q7RTN6 59-431): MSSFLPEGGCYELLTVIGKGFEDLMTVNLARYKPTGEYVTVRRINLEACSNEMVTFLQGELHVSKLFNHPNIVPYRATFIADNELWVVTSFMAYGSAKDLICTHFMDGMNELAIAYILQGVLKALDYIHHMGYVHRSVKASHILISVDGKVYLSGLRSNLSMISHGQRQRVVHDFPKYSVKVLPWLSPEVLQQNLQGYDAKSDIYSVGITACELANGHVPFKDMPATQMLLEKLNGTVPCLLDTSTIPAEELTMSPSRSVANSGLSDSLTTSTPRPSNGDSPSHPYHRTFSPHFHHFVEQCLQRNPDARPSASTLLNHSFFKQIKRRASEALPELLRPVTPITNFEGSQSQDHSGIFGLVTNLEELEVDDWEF
Description: (§1) SPR measurements were performed using a BIAcore T100 instrument. Wild-type and mutant forms of MO25α were immobilized on a CM5 sensor chip using standard amine-coupling chemistry, and 10 mM HBS (pH 7.4) was used as the running buffer. The carboxymethyl dextran surface was activated with a 7-min injection of a 1∶1 ratio of 0.4 M 1-ethyl-3-(3-dimethylaminopropyl) carbodiimide hydrochloride (EDC)/0.1 M N-hydroxy succinimide (NHS). MO25α (5–7 µM) was coupled to the surface with a 1-min injection of protein diluted in 10 mM sodium acetate (pH 5.5). Remaining activated groups were blocked with a 7-min injection of 1 M ethanolamine (pH 8.5). MO25α was immobilised on three flow cells of a CM5 chip at densities 1,700–2,500 RU performed at 25°C, leaving one flow cell as a reference to subtract any possible nonspecific binding.
(§2) STRADα was prepared in running buffer containing 50 mM Tris (pH 7.8), 50 mM NaCl, 270 mM sucrose, 1 mM DTT, 0.005% P20, and 0.1 mg/ml BSA in the presence/absence of 100 µM ATP and 1 mM MgCl2, and injected over all four surfaces at nine concentrations of a 3-fold concentration series (5 µM to […]). Each concentration was injected in duplicate over all surfaces. Association was measured for 60 s at a flow rate of 50 µl/min, and dissociation was measured for 3 min. STRADα dissociated completely from the MO25α surfaces, thus eliminating the need for a regeneration step.
(§3) Data were analysed using Scrubber 2 (BioLogic Software) and CLAMP software. Data were double referenced to the reference surface to subtract any possible nonspecific binding and to the blank buffer injections to subtract drift of the target from surface. Data were fitted to a 1∶1 or 2∶1 binding site model where appropriate. Kinetic association (k a) and dissociation rate (k d) constants were separately determined from the BIAcore sensorgrams, and equilibrium dissociation constants (K d) were calculated as: K d1 = k d1/k a1 and K d2 = k d2/k a2. Equilibrium constants were also independently calculated from a saturation binding curve, by fitting the measured response (R) from specific binding to the following equation: R = (R max1[STRAD]/([STRAD]+K d1))+(R max2[STRAD]/([STRAD]+K d2)), where R max1 and R max2 are the relative maximal changes in response for sites 1 and 2, respectively, and K d1 and K d2 are the equilibrium dissociation constants for sites 1 and 2, respectively. Dose-response curves for calculating the Hill slope (H) of the data were fitted with the following equation: R = minimum+(maximum−minimum)/(1+10^((logEC50−[STRAD])×H)) using GraphPad-PRISM software.

[2] = target: T2, MO25α (R227A) (Homo sapiens, UniProt Q7RTN6+Q9Y376, R227A)
T2 construct: wild-type and mutant forms of STRADα (residues 54–431) and MO25α (residues 1–341) were expressed individually as GST fusion proteins in E. coli; GST (cleaved yes); made in house; host or cells: E. coli
T2 sequence (Q9Y376 1-341 R227A): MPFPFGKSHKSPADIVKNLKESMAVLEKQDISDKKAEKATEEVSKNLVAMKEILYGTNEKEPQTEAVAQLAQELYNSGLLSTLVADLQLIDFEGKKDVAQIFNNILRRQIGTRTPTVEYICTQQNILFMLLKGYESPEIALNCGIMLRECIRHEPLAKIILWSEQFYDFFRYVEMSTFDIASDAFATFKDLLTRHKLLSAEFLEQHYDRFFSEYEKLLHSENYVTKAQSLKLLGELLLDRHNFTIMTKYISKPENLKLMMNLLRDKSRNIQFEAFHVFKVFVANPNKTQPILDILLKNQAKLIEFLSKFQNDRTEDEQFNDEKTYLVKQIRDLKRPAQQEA
T2 sequence (Q7RTN6 59-431): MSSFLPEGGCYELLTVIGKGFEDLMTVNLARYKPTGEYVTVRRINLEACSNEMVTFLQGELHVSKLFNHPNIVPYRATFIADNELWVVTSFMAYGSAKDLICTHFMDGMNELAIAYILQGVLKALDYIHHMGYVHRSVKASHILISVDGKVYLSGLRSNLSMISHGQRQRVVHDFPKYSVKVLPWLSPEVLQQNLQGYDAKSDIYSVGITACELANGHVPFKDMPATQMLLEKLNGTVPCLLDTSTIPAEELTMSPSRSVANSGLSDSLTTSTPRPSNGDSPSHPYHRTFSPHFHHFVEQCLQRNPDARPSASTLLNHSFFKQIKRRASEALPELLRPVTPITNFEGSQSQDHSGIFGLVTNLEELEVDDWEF
Description: as §1, §2, §3

[3] = target: T3, MO25α (R227A/M260A) (Homo sapiens, UniProt Q9Y376, M260A/R227A); settings: even in the presence of ATP
T3 construct: wild-type and mutant forms of STRADα (residues 54–431) and MO25α (residues 1–341) were expressed individually as GST fusion proteins in E. coli; GST (cleaved yes); made in house; host or cells: E. coli
T3 sequence (Q9Y376 whole entry R227A/M260A, one chain of several, the tested form may be a part): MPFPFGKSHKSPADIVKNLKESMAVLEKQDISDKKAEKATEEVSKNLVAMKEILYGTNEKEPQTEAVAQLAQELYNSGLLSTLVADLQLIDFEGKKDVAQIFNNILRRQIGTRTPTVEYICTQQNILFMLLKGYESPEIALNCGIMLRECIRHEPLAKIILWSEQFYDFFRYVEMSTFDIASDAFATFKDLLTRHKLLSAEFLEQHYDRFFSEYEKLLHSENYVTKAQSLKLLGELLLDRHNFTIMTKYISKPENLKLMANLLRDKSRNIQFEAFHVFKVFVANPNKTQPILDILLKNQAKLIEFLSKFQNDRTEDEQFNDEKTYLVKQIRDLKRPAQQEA
Description: as §1, §2, §3

[4] = target: T4, MO25α (WT) (Homo sapiens, UniProt Q7RTN6+Q9Y376)
T4 construct: wild-type and mutant forms of STRADα (residues 54–431) and MO25α (residues 1–341) were expressed individually as GST fusion proteins in E. coli; GST (cleaved yes); made in house; host or cells: E. coli (STRADα: BL21(DE3)pLysS, co-expressed with MO25α and then separated from it)
T4 sequence (Q9Y376 1-341): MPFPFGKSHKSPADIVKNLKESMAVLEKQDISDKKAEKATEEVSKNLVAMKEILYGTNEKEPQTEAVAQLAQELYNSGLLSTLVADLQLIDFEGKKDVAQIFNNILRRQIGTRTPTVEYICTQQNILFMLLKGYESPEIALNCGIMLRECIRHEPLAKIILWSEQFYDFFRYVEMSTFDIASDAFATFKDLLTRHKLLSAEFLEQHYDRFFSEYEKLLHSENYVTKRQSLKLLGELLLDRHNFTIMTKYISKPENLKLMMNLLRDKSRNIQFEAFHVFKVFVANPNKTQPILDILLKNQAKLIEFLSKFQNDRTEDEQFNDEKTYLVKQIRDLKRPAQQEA
T4 sequence (Q7RTN6 59-431): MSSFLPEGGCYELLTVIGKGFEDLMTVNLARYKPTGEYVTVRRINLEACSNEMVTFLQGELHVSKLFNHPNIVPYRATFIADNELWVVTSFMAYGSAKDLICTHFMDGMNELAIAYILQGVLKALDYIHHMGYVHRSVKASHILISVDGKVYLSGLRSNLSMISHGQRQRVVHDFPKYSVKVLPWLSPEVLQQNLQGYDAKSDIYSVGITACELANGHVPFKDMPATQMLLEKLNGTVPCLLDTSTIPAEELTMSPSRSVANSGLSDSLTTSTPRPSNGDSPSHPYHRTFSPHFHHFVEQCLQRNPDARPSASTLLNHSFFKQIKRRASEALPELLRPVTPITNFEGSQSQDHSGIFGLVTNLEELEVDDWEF
Description: as §1, §2, §3

- kd1 ([1]; + ATP + Mg2+): 0.43 (1.7 × 10−3) s−1
- kd2 ([1]; + ATP + Mg2+): 0.05 (2.3 × 10−4) s−1
- kd1 ([1]; no ATP): 0.92 (3.0 × 10−3) s−1
- kd1 ([2]; + ATP + Mg2+): 0.72 (2.0 × 10−3) s−1
- binding of STRADα observed by SPR ([2]; in the absence of ATP): virtually abolished binding
- interaction with STRADα [3]: failed to interact
- Kd ([4]; + 0.1 mM ATP, Kd = kd/ka, read-out: Kd1): 2.5 µM
- kd1 ([4]; + ATP + Mg2+): 0.43 (1.4 × 10−3) s−1
- kd2 ([4]; + ATP + Mg2+): 0.04 (8.8 × 10−5) s−1
- Hill slope ([4]; in the presence of ATP, two-site binding): 0.4
- Kd ([4]; in the presence of ATP, read-out: second binding constant (Kd2)): 0.012 µM
- kd1 ([4]; no ATP): 0.63 (3.0 × 10−3) s−1
- Kd ([4]; no ATP, Kd = kd/ka, read-out: Kd1): 3.8 µM
B1: STRADα: STRADα pseudokinase (residues 59–431), His tag removed, analyte injected over immobilised MO25α in SPR (protein)
chain: MSSFLPEGGCYELLTVIGKGFEDLMTVNLARYKPTGEYVTVRRINLEACSNEMVTFLQGELHVSKLFNHPNIVPYRATFIADNELWVVTSFMAYGSAKDLICTHFMDGMNELAIAYILQGVLKALDYIHHMGYVHRSVKASHILISVDGKVYLSGLRSNLSMISHGQRQRVVHDFPKYSVKVLPWLSPEVLQQNLQGYDAKSDIYSVGITACELANGHVPFKDMPATQMLLEKLNGTVPCLLDTSTIPAEELTMSPSRSVANSGLSDSLTTSTPRPSNGDSPSHPYHRTFSPHFHHFVEQCLQRNPDARPSASTLLNHSFFKQIKRRASEALPELLRPVTPITNFEGSQSQDHSGIFGLVTNLEELEVDDWEF
modifications: left off: His6 with TEV site (…), N-terminal, cleaved
notes: STRADα pseudokinase (residues 59–431), His tag removed, analyte injected over immobilised MO25α in SPR
